This passage reports pKa results from publication PMC5805711.

Read-outs that look alike come from different tables or passages of the source.

For series [1], the target named is T1, His68 (UniProt position 68, KESTLHLVLRL). The series is described as follows: NMR. As to conditions: 23 °C; Not stated explicitly for Ub^WT; described as 'a similar pH titration' to that of pUb in citric acid-phosphate buffer; Free wild-type ubiquitin, folded.
In series [2] the target is T1, His68. The note with it: Ubiquitin; form not further specified (literature value); cited from earlier work.

In general, pKa refers to the pH at which an ionisable group is half protonated.

Take “Ubiquitin (Ub^WT) (Homo sapiens (inferred; the article does not state the species of the ubiquitin))”: the values for the pKa with His68 [1] and with His68 [2] were 5.7 and 5.5, respectively.
